Laboratory results from patent US20250115680A1 (PROFOUNDBIO US, published 2025).

B1: humanized antibody 13C4 (antibody, V domains shown)
VH: QVQLVESGGGLVKPGGSLRLSCAASGFAFSTYDMFWIRQAPGKGLEWVSTISSGGGYTYYPGSVKGRFTISRDNAKNSLYLQMNSLRAEDTAVYYCVRPLLRDSYFYFDVWGQGTMVTVSS
VL: EIVMTQSPATLSVSPGERATLSCRASSSVSSSYLHWYQQKPGQAPRLLIFRTSNLASGIPARFSGSGSGTEYTLTISSLQSEDAAVYYCQQYSGYPLTFGQGTKLEIK
notes: Only variable regions are tied to 13C4; It was detected with anti-human Fc
B2: humanized antibody 2C8 (antibody, V domains shown)
VH: QIQLVQSGAEVKKPGASVKVSCKASGYTFTTYGMSWVRQAPGQGLEWMGWINTHSGVPTYVDEFKGRVTMTLDTSTSTAYMELSSLRSEDTAVYYCARSPFDYGSRGAWFVYWGQGTTVTVSS
VL: DVVMTQSPDSLAVSLGERATINCRSSQSIVHNSGDTYLEWYQQKPGQPPKLLIYKVSNRFPGVPDRFSGSGSGTDFTLTISSLQAEDLAVYYCFQGSHVPWTFGGGTKVEIK
notes: Only variable regions are tied to 2C8 by name; It was detected with anti-human Fc
B3: humanized antibody 2C5 (antibody, V domains shown)
VH: QVQLVQSGAEVKKPGASVKVSCKASGYTFTDYYINWVRQAPGQGLEWMGDINPYSGGPVYNQKFMARVTMTVDKSINTAYMELSRLRSDDTAVYYCARGDYYGSNYNYWGQGTLVTVSS
VL: EIVLTQSPATLSVSPGERATLSCRASQNIGTSIHWYQQKPGQAPRLLIKFASESISGIPARFSGSGSGTEFTLTISSLQSEDIAVYYCQQSNNWPYTFGQGTKLEIK
notes: Only variable regions are tied to 2C5; It was detected with anti-human Fc, so it has a human Fc

Key:
[1] = biological target: T1, mouse PTK-7 recombinant protein (mouse, UniProt Q8BKG3 23-696, limits assumed); test: ELISA, plate-coated mouse PTK7 recombinant protein
T1 construct: also called mouse PTK7 protein
T1 sequence (looked up): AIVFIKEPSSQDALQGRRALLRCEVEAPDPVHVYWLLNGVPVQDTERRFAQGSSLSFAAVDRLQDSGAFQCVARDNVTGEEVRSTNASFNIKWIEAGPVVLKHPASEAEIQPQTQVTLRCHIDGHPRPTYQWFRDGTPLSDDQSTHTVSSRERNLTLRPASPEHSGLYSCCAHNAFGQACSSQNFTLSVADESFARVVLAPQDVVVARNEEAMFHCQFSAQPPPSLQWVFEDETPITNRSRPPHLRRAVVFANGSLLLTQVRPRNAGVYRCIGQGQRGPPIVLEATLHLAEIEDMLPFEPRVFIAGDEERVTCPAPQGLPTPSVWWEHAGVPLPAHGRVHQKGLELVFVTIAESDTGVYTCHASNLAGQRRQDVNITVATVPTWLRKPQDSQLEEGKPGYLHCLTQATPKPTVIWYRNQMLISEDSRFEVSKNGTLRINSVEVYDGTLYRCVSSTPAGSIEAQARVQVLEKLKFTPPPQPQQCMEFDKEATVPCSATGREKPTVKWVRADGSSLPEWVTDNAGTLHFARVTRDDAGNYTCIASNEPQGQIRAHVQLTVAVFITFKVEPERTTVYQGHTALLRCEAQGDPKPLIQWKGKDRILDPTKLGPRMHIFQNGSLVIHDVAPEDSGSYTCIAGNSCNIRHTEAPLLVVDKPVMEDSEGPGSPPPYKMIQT
Experimental: Binding specificity property was tested by ELISA according to a standard protocol. Specifically, 96-well micro-plates were coated with 2 μg/mL human, cynomolgus, mouse, and rat PTK-7 recombinant protein in PBS 100 μL per well, incubated overnight at 4° C. Plates were washed twice by TBS+0.5% Tween20. 200 μL of blocking buffer (2% BSA in PBS) was added to each well and incubated at 37° C. for 2 hours. Plates were washed using the buffer mentioned above. Serially diluted antibodies were added to the ELISA plate with 100 μL per well and incubated for 1 hour at room temperature. Then plates were washed for 3 times. After washing, HRP conjugated anti-human Fc antibody solution (abcam, ab98624, diluted with blocking buffer) was added to the plate with 100 μl per well. The plates were incubated at room temperature for 1 hour and then washed for 3 times. Then TMB solution was added to plates with 100 μl per well, placed at room temperature for 5-15 mins, then the stop solution (2M H₂SO₄) was added with 50 μl per well. Finally, the result was measured by absorbance at A₄₅₀ and A₆₃₀.

[2] = biological target: T2, cynomolgus PTK7 extra-cellular domain (ECD) linked to His tag (cynomolgus monkey, UniProt A0A2K5VNI5 39-712); test: BLI (Octet RED), antibody on anti-human IgG Fc tips, PTK7 ECD-His 100 to 1.56 nM in solution, 1:1 global fit
T2 construct: extracellular domain; also called cPTK7-his; cynomolgus monkey PTK7-his protein; not shown: His tag
T2 sequence: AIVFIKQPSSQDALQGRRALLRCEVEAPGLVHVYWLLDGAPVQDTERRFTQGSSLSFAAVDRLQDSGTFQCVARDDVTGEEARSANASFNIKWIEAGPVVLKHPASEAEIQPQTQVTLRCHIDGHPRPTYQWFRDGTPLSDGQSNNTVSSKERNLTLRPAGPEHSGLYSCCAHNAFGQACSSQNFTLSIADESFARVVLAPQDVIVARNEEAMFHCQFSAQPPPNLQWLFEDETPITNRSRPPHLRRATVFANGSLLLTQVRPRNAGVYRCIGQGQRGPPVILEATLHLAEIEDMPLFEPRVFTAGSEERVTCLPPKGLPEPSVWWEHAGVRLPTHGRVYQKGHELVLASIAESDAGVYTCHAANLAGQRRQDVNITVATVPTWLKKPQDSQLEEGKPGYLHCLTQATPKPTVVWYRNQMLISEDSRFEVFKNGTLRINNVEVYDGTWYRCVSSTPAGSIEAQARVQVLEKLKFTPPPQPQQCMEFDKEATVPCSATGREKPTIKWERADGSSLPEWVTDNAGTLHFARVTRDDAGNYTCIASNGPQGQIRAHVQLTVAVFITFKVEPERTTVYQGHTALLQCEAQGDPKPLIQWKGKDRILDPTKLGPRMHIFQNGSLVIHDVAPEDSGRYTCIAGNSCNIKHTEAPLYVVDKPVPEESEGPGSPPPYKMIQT
Experimental: (§1) Recombinant proteins consisting of the PTK7 extra-cellular domain (ECD) linked to His tag were purchased from ACRO biosystems. […] Binding assays using varying concentrations from 100 nM down to 1.56 nM of recombinant proteins (human, cynomolgus) in solution were performed using Octet RED (ForteBio). Association time was set at 180 seconds and dissociation time was set at 300 seconds. Binding affinity was calculated using ForteBio Data Acquisition 6.3 software (ForteBio). Affinity was derived by fitting the kinetic data to a 1:1 Langmuir binding model utilizing global fitting algorithms.

[3] = biological target: T3, human PTK7 extra-cellular domain (ECD) linked to His tag (human, UniProt Q13308 31-704); test: as above
T3 construct: extracellular domain; also called hPTK7-his; human PTK7-his protein; not shown: His tag
T3 sequence (looked up): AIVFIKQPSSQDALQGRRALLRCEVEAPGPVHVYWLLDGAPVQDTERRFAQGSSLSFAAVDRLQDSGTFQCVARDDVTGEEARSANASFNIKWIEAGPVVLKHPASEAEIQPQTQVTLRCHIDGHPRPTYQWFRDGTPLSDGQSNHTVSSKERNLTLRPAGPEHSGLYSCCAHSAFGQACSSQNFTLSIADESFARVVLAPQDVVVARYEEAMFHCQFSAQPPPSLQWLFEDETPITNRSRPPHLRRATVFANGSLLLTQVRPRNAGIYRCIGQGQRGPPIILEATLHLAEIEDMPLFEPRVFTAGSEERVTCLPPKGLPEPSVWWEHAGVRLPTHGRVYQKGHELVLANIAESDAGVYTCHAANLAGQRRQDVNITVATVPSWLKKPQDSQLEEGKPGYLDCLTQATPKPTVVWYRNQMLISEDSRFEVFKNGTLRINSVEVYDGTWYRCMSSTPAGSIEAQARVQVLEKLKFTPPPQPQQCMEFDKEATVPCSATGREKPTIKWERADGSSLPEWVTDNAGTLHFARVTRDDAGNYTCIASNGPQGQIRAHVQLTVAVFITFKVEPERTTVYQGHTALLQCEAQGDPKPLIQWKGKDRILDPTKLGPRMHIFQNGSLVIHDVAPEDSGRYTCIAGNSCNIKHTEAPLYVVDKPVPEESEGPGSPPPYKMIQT
Experimental: as §1

Binder | binding result [1] | Kd [2] | koff [2] | kon [2] | Kd [3] | koff [3] | kon [3]
B1 | no binding | < 0.001 nM | < 1e-07 s⁻¹ | 54100 M⁻¹ s⁻¹ | 0.798 nM | 0.000132 s⁻¹ | 166000 M⁻¹ s⁻¹
B2 | no binding | – | – | – | – | – | –
B3 | – | 0.0904 nM | 2.02e-05 s⁻¹ | 224000 M⁻¹ s⁻¹ | ≤ 0.00139 nM | < 1e-07 s⁻¹ | 34800 M⁻¹ s⁻¹
